In the test the target is chimeric receptor mouse flk-1 (VEGFR-2)/human fms expressed on transfected 3T3 cells (C441) (mouse; human) (UniProt P35918). Description: cell-based or functional assay.

Experimental findings from patent US20090022714A1, “Combination methods of inhibiting tumor growth with a vascular endothelial growth factor receptor antagonist” (ImClone Systems, Inc., priority 2001, published 2009) are described below.

Sequence of chimeric receptor mouse flk-1 (VEGFR-2)/human fms expressed on transfected 3T3 cells (C441) (mouse; human) (P35918 other isoform, or with tags, fused parts or gaps mutant limits assumed): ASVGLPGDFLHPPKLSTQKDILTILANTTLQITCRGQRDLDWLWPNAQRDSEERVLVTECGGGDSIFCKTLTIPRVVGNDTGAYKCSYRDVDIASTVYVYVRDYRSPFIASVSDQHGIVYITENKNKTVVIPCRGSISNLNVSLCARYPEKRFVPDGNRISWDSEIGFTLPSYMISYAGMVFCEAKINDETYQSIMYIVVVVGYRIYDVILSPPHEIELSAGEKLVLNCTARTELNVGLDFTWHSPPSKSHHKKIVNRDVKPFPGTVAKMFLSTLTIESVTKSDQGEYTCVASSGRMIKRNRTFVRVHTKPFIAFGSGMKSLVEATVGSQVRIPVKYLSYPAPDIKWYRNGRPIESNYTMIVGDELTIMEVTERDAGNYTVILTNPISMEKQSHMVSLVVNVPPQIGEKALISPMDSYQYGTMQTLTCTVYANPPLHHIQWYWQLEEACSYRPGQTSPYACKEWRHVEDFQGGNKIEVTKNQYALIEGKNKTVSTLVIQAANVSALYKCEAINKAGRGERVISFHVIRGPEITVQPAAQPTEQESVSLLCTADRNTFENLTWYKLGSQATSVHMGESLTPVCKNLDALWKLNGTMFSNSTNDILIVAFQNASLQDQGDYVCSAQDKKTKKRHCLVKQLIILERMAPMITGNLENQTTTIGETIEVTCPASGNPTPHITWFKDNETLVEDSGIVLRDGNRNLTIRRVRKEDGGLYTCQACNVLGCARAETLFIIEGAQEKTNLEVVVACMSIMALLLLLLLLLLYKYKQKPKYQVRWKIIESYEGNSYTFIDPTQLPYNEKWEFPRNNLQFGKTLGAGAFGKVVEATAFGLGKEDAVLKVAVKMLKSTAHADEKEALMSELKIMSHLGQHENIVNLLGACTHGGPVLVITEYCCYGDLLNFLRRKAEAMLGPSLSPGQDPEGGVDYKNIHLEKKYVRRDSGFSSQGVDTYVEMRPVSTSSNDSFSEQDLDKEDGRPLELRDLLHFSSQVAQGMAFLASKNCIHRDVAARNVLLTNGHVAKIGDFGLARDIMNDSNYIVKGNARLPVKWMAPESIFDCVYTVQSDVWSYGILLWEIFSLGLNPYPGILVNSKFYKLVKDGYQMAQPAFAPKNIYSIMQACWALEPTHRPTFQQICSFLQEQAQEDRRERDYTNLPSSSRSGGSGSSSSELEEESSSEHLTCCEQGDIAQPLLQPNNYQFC

B1: rat anti-mouse flk-1 (VEGFR-2) monoclonal antibody DC-101 (antibody, from another filing, rat IgG1, V domains shown)
VH: EVQLVETGGGLVQPGNSLKLSCATSGFIFSTTWMNWIRQTPGKRLEWLAQIEDKSNNYFISYSESVKGRFTISRDDSKSSVYLQMNNLKEEDTAIYYCSWKYRSNYYFDYWGQGVMVTVSS
VL: DIVLTQSPALAVSLEQRATISCKTSQNVDYYGISYLHWYQQKPGQQPKLLIYEGSNLASGIPARFSGSGSGTDFTLTIDPVEADDIVTYYCQQSKDYPYTFGAGTKLELKR
B1 showed an inhibition of receptor activation by ligand of under 1 µg/mL; an inhibition of receptor activation by ligand, prebound antibody of under 1 µg/mL; a phosphorylation level relative to the fully stimulated receptor control, antibody added with ligand (densitometry) of 40%; a phosphorylation level relative to the fully stimulated receptor control, antibody prebound (densitometry) of 6%. In addition, the phosphorylation of flk-1 (VEGFR-2), competitive antibody titration is over 0.5 µg/mL.
